Assay: soluble on expression in E. coli; label from the status in PepcDB or PDB records

Sequence	soluble on expression in E. coli
MGSDKIHHHHHHMSTPLSHATLEQLFLNARTHSHWQPRPVSDELLHQLHELLKQAPTSANCSPARFVFVKSEAAKAKLKPCLAAGNVDKTMAAPVCVIVAHDTRFYEHLPQLFPHADAKSWFEGNQPLIDTTAFRNGTLQGAYLILAARSLGLDCGPMSGFDNAAVDAAFFPDGRVKSNFLINLGYGEADKLFPRSPRFGFDEACQIL	not soluble
MGSDKIHHHHHHMSTPVLNLDPDTLLMSSKDARAAAAPYAAEYQGRGPFNYGGYDNFLNPEILERVREELKQLPEAANSYDRPQERLKTSYVPERLPMYTRQLFYALNSRPMLAFIEELTGIKGLIPDPYFAGGGVHVVANGGHLDIHADFNHHAGLNLERRVNLLIYLNKDWREEYGGSFEVWDENMAGKLASYVPLFNRMCMFSTSSESWHGNPEPVNHPDGEPRMSIALYYYTATWDSTRKSHTTLFKPRPGTKDQRDRQVARRELLQDLLPPVLHRKLAWRLEKLGF	not soluble
MGSDKIHHHHHHMSTTMQVIELNGPNRLSISQRQVPETPVDGVLLKTSAVSICSTDISHYHGNLLAEDYPVILGHEYSGIVVDVGPECPSSLQGQRLAYFGQTDFGGMAEYRALRPLFAGDLRSSPFKTGRFFKDDERAAAITLPDEISDSDAPLIEPITAVLRSILTHPPAVGNRVLVLGGGPCGAIAGAILQTLYATKSVAVLERNQARQEIARSQYANFVFGSAEELRESDDDAFDYVFDALPPLVNIEADSCPRRAAMRAAKPGSKYVLYGASQTLQQFDTWLLLAKGITLASAAFDVDHFPMYKTAFVMKTAKELLLRRIIDPGWMMTNHMSFWRPQEVIQFFAEYYTTPHLKTVIHFDQ	not soluble
MGSDKIHHHHHHMSTYKINNEQLTLIKEMPFKLEKEIQNIVERNLQTLLGLDFIKTEFSIGSFRIDSLAFDSEKKSFVIIEYKRDKNFSVIDQGYAYLSLMLNNKAEFILEYNESKSGALKRNDVDWSQSKVLFVSPNFTTYQKEAINFKDLPIELWEIKRFTNDTLSFGQIVNRSSKESIKTVSNSEAITTVSKEIKVYSEQDHLENIKDDFLNIYTEIKEFLLSFGEDITIYPKKKTIGFKIGGKVFCDIVMQNKGIRLFLNAKKGTLKDPEGITRDVSEVGHWGNGAYEVRFPLKNDAEIDFVFNLLRQTINKNKE	not soluble
MGSDKIHHHHHHMSVRVNNLLKLPSLREATVLSGKNQLDTSVASLSFLEVSDMSLFSEKLHKTNEYHAGEILIGSFCAIRHDVVKQCETIRHLHELGEVGLILYYVGIIVPKVAEEVIQLADSLGFILIQMPKNDPTLRYNEVIYEVMKLLVNKNKMASFATDLLEKVSLLPEQNRSVEMTLKILSDFLKVNIALTTYTNEIISTINWPRSTKLPLTKLLYQSQEKVALGETTYFITSQKLPQKDGQTLKLYFIREEEQLTSFEMNQAVEVVQMALNLWGKNYDEVSEYALVQAIINDESDKMYQLAKKLMIDISSVETMWLLPIWQQGQEIHAIQQDLKDFLRYYYQTTIVQQTENYLIVLLGNYLHKQPEATISKEYLQATDYQDYLGEIILCPKVRNTTEVRVSYQTANQVAPFLKRVYPQRKVLSIAEIRTVQQMMTCLQAGEEAIQQRLAVIQPLLKESEQLMTLGTFLLDASSDFNECGERLFVHKNTVKYRISKINEALGYDMTNAAEAYEVYLAMILYRLVTNE	not soluble
MGSDKIHHHHHHMSYRIVVDPKEVVKPISRHIYGHFTEHLGRCIYGGIYEEGSPLSDERGFRKDVLEAVKRIKVPNLRWPGGNFVSNYHWEDGIGPKDQRPVRFDLAWQQEETNRFGTDEFIEYCREIGAEPYISINMGTGTLDEALHWLEYCNGKGNTYYAQLRRKYGHPEPYNVKFWGIGNEMYGEWQVGHMTADEYARAAKEYTKWMKVFDPTIKAIAVGCDDPIWNLRVLQEAGDVIDFISYHFYTGSDDYYETVSTVYLLKERLIGVKKLIDMVDTARKRGVKIALDEWNVWYRVSDNKLEEPYDLKDGIFACGVLVLLQKMSDIVPLANLAQLVNALGAIHTEKDGLILTPVYKAFELIVNHSGEKLVKTHVESETYNIEGVMFINKMPFSVENAPFLDAAASISEDGKKLFIAVVNYRKEDALKVPIRVEGLGQKKATVYTLTGPDVNARNTMENPNVVDITSETITVDTEFEHTFKPFSCSVIEVELE	not soluble
MGSDKIHHHHHHMSYVAVKGGSTAIRAAHRLVRKRMRGDPDAPEITPRQICEQMHLGVDRVMAEASLYDEDLAARAMLQAQGDMIEAIFLLRAYRATLTRFLDSTPLAMDTMRVQRRISAAFKELPGGQQLGQTYDYSHRLFGYFDRLETKSDIESGKTEVPPEPMTSVMDLLEKEGLMELAAACEPPAENMQQDITRHPLLFPATRAQRLQSLARGDEGFLLSMAYSTQRGYGQNHPFIAELRMGDVTVEITPPELGFPIEIGTITVTECQMINQFQARSPEEAAFTRGYGLVFGHSERKAIAMALVDRALRAGELGEEALSPAQNEQFVLSHCDNVETTGFVEHLKLPHYVDFQSEIQTLRHLHKTAAKDGADRV	not soluble
MGSDKIHHHHHHMTAAESIYALYPYIQHAQLLAHNEKIKQDNVIFTYTVSLSYDEISLRVLHVDSDNTKHIHIQVLFEINQGKIYVKDLYHNSGAAFELLTSIKSNPSLHQASFAQNSVPASWLSRDILNSLAIADRIAQKAINQYAGDDYRPGYYSQIECSGTQLILSQINHMNSRSLSHKENYSLRNLTFTIPLNGKADSEMLYNTDRIGIMNINFSDHSSANNRSAGDAVKNQIAEEIRLYQNDVE	not soluble
MGSDKIHHHHHHMTARNILSYSYEEYVEKITAFHGYPAPGVLIGGFMVDLAVKNLPEGILYDAICETRTCLPDAVQLLTPCTFGNGWLTVLPMGLFAVSLYDKFTGEGVRVFLDVEKMGPWQEIRNWFLKLKTKKEQDSERLFKEIREAGPDILELRNVKLKPGFLEKKHKGKIVLCPQCREAYPAQDGELCLSCQGGSPYL	not soluble
MGSDKIHHHHHHMTATASSSPKLRVDTRGTNELPPHLDENLLTPRFYVTEFKKAAKTELTDAREEFEAMLSEMKADYNCTHFDRKASLDRLQELPQKAKETYESYLVRSVISEFSGFLLFKEISNRLKKEGNRDLGKLFQFLARDEARHAGFLSRALVAEGIEVDLPHLGGKRAATWFPISWVIYSVYLSEKIGYWRYILMDRHLKANPDQAFAPLFDFFEPWCQDENRHGDCFTVMMRCWPGITKGFRGKLLSRFFLWSVFLTHTLTVCERGEFYELLGIDPKEFDEEVIKRTNHTSKNAFPWVFNLDDNKFWDLRNKIIESFRAFVGAKGLTKPVKFVKFATLIFKQFALPMEKTDALRYDKNVNFTGQDILNFWTDK	not soluble
MGSDKIHHHHHHMTDNQLLMQEALEWKMHFLRKDSMFERFSKRVQTKVNERIPEKIHTVVTESVKKMVEATMAGSNIITYKKDTSALSLSEKNELAKKTIVSYQKVAAAEGVGTGAGGIFLSIADFPLLLSIKMKCLFTLSSIYGFDVKDAQERIFLLLVFQLAFSSDDGRKSLFSVIENWETEKKSIDWRVFQQEYRDYIDVVKLFQLLPGVGAAVGGIANYKLLAQLGETARHVFHLRILKETAGE	not soluble
MGSDKIHHHHHHMTEDIIKKYRGKLPESILEQWHLFGFAGYLNGLYWITNPDDYAEVIYDWLEETPLPDDDVYHVLARSAFGELLIWGERNYGRYYIKTMEGILHDNGEQLESAEFYGSDFFFLPKKNYLDYTDKNGNKLFDRAVKKLGVLKADEMYAFEPALALGGEESLQHLTKVNLPVHMKLLKQVTPLRLRTFEDLTAALYGTSYSVDDLTSGQDAESQYQESVQAGEVCPRTGYWTTPAQPNTRHYCKKGEVLPEIKEQDWGEVYWYWDGEN	not soluble
MGSDKIHHHHHHMTEFAIELTGINKSFGAVKANRDVTMSVPKGSIHGIIGENGAGKSTLMSILYGYYHADSGTIRVNGKDVRIRNSQEAIRLGIGMVHQHFMLVETFTVLENIVLGAEGGRLLKGGMEQAREHLKELNKNYSLEVDPDALVGDLGVGLQQRVEILKALYRGADVLILDEPTAVLTPQEADHLFHILRSLKAQGKTVILITHKLREVMDITDNVSVMRAGTVVDNVRTCDVDKEKLADLMVGRKVSLKVDKADSQAGAAVLDVQGLTLIDERKVKLLDNLNFQVRAGEIVGIAGVSGNGQSELLEVLAGMRDPSAGAVVYKGEDLLKLPCRRKPRAAVYRQRGIGHIPEDRSREGLVKAFSTFENAILGYHDDKTLNSGPLYSRKKLVERTRDFIAQFDIRPGNPLLRVGLLSGGNQQKVVLAREIHANPDLLLIGQPTRGVDIGAIEFIHKRLIELRDEGKAILLVSVELEEILALSDRILVMAGGQITGEVAAKDADTISLGLLMGGHKH	not soluble
MGSDKIHHHHHHMTEGGFDPALLVQSWPKPSKPRPIVTFGSGSIVGDAHFPAYRKAGFPIAGLYDPDQAKATTLADKWGVTAFRSVGEAAAVQDAIFDLATPPGRHAEILKDLPDGAVALIQKPMGNYLGEATEILEICRAKNLKAAVNFQLRFAPMMLALKDAIAKGWLGEIVDFDAWLALATPWELWEFLLKAPRVEIAMHSIHYLDLIRQLLGDPKGVHAKTLGHPNHKVAQTRTSAILDYGDTVRCALSINHDHKFGRRHQACEFRICGTEGAAYLKLGLNLDYPRGEPDILEIHPKGGTDWIAVPLAGEWFPDAFVGRMANVQRFASGEDDELVSSVEDAWSTMALVEAAYKSSAAPATLIAERP	not soluble
MGSDKIHHHHHHMTEKVSRFPGVFPLIVIGVPGSVDKTHKKLAFAPNLNRWRDIDVEKYFKVFEVYLENDANLAALAEMMRNKHFGDRKNIVYILVREGIGGGIIIEGKLYKGSFNAAGEIGHMKMYDRGPCFCGRVGCWEANTSISHCVRQYEKKKPLPGNTMYEKFETLCRIYEEDPLAKEVLDEFTGILIDGIVNLVNILSPEIVIVGGEGVFLPESVFEVIVSETRRQVHPMDKEVSVEKGSLSNKEVVLEGTSILSSMMISERLV	not soluble
MGSDKIHHHHHHMTGIPTHKAVQQSDFGIFAKEVSPFSPNRTINYVHRDDYYILGVVKSGTCHVSIDFKEYVFSAGDVVCTQPNQVHHIIDTGNADVLLLFIDGVFIDTPTKQIIAEYVLSPVPFKINDIQYTDLGQLFSMILRRMNGGNPDCKSKAVIQNLSCAIVGIITDNIQKYIGQNHKNRRHIEITLALKALFSEEKQLNRSVSYYAEALHISPVYLNEVVKNVTGESVSKYIQNELILRAKRMLVYTSLNVREISIDLGIEDYAYFTRLFTKAVGVNPTSYRKKYLE	not soluble
MGSDKIHHHHHHMTIALTGGGTGGHLAIVRCLLESAIKKNIECVYIGSQNGQDKAWFENEVRFKEKFFLSSKGVVNQSKFDKISSLLHTLKLSKDCREIFKKYHIQAVFSVGGYSAAPASFAALFSHLPLFIHEQNSKSGSLNMLLKPFATKFFSAFEKEISPYPVADKFFDNARIRKELKNIIFLGGSQGAQFINELALNLAPKLQEQNIKIIHQCGKNDFEKCKKHYQSLNIQADIFDFSLNLEEKMKNADLAISRAGASTLFELCANTLPTIFIPYPYAAKNHQYFNAKFLQDQALCQIFMQNSINLDEFFKSILKLNLENISTRLQNITQKNGADMLIQKALFDNLTFIR	not soluble
MGSDKIHHHHHHMTIELTPPPKKNPQKRSTSATRPPEARSRAALGLSAAAAEGRFALQVCAECQAVQYPPRDACAACIGTDLVWQDISPDGHLLAETTIQTSTKLFFRERAPWRMGSVKLTAGPVVLCHVHGDCTRGGPVKILNRLDKSGQAVLIAIPPERTEHMDDDPQLRAMSANPKHRRILITDAWNPNTPALAKALLEAGAATIFVGEAESWRPHPNRDTLAGMENVDILPLDVTDTASVQTLAGEIGGKTDILINNARFMRPGGVLARGDTGFARDEMEVNYLGLMRLAQAFGPGMCARMADGVNSAAAWVNILSAHALSNAPDYGCFSASNAAAYSLSQSLRGEFRSAGLRVMNVFVGPTDDDWYAPLPPPKVLPTGLARSVVDGLRDGLEDVWCGDIAKDMRDRWRRDAKVLEREMTFGSEGA	not soluble
